For four molecules, Kd, koff and kon results are on record in US20260062479A1.

Substitutions are numbered along the chain they refer to.

The assay concerns the target largest TIRC7 extracellular domain (T-cell immune response cDNA 7) (human) (UniProt Q13488). The assay can be described thus: SPR, Biacore T200, 25 C, TIRC7 domain immobilized on CM5 chip, 1:1 kinetic fit. Background: In SPR one partner is held on a chip, and binding of the other changes the refractive index at the surface.

B1: parent antibody (murine anti-TIRC7 antibody 17-20, cAb1457) (antibody, V domains shown)
VH: QVQLKQSGPELVKPGASVKMSCKASGYTFTTYVMHWVKQKPGQGLEWIGYINPYNDGTNYNEKFKGKATLTSDKSSSTAYMELSTLTSEDSAVYYCAEFITKTVGGSNWYLDVWGAGTTVTVSS
VL: DIVLTQSPAIMSASPGEKVTMTCSASSSISYIHWFQQKPGTSPKRWIYDTSKLPSGVPARFSGSGSGTSYSLTISSMEAEDAATYYCHQRSSYTWTFGGGTKLEIK
The Kd is the concentration at which binding is half-saturated. A word on the koff: it is the first-order rate constant of dissociation. A higher koff goes with fast dissociation. Broadly, the kon is a measure of how fast the partners come together. Higher therefore signals faster complex formation. The molecule B1 registered a Kd of 0.3 nM, a koff of 0.00013 s⁻¹ and a kon of 520000 M⁻¹ s⁻¹.

B2: cAB1467-10.0 (antibody, V domains shown)
VH: QVQLVQSGAEVKKPGASVKVSCKASGYTFTTYVMHWVRQAPGKGLEWMGYINPYNDGTNYNEKFKGRVTLTSDKSTSTAYMELSSLRSEDTAVYYCAEFITKTVGGSNWYLDVWGQGTTVTVSS
VL: DIQLTQSPSFLSASVGDRVTITCSASSSISYIHWFQQKPGKAPKRWIYDTSKLPSGVPSRFSGSGSGTEYTLTISSLQPEDFATYYCHQRSSYTWTFGGGTKLEIK
B2 had a kon of 1.24e+06 M⁻¹ s⁻¹.

B3: cAB1468-10.0 (antibody, V domains shown)
VH: B2 VH
VL: EIVLTQSPATLSLSPGERATLSCSASSSISYIHWYQQKPGQAPRRLIYDTSKLPSGIPARFSGSGSGTDFTLTISSLEPEDFAVYYCHQRSSYTWTFGGGTKLEIK
For B3, the kon stood at 1.13e+06 M⁻¹ s⁻¹.

B4: cAB1459-10.0 (antibody, V domains shown)
VH: B2 VH with L70M, S72E, K74T, S77D
VL: B2 VL
Turning to B4, the kon was 3.56e+06 M⁻¹ s⁻¹.
